The source of these data is US20110158936A1 (LORUS THERAPEUTICS, published 2011).

In experiment [1] the target is T1, murine interleukin 17E receptor present on the pre-B cell line 70Z/3 (murine, UniProt Q9JIP3 18-499).
T1 construct: whole, on cells; This is the endogenous receptor on 70Z/3 cells; also called murine IL-17E receptor; IL-17E receptor
T1 sequence (looked up): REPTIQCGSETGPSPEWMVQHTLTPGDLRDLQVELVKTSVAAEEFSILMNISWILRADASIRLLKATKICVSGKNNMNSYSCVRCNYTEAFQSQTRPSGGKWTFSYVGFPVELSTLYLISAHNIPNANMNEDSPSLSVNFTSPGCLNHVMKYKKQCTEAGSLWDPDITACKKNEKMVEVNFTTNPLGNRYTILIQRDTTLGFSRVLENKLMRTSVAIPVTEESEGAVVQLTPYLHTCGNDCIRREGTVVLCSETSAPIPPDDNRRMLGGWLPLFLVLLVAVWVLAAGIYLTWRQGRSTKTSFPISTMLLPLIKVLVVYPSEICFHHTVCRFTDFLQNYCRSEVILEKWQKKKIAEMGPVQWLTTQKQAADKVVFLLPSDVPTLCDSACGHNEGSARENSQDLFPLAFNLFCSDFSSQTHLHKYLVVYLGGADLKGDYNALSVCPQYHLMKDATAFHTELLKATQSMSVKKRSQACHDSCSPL
The experiment in a line: FACS on 70Z/3 cells incubated with IL-17E (1 ug/10^6 cells), detected with biotin-conjugated goat anti-human IL17E and PE-Cy5.5 streptavidin. As for the experimental part: (§1) The ability of human and murine interleukin 17E to bind to the IL-17E receptor was examined using the murine pre-B cell line 70Z/3 (Paige, C. J., et al. (1981) Nature 292:631-3).
(§2) Fluorescence-Activated Cell Sorter (FACS) Analysis: 1×10⁶ 70Z/3 cells/sample were incubated with either murine or human IL-17E (1 μg/10⁶ cells) for 30 minutes at 4° C. After washing twice, cells that had been incubated with murine IL-17E were incubated with biotin-conjugated goat anti-mouse IL17E and phycoerythrin (PE)-Cy5.5-conjugated streptavidin. Cells that had been incubated with human IL-17E were incubated with biotin-conjugated goat anti-human IL17E-biotin and phycoerythrin (PE)-Cy5.5-conjugated streptavidin. As negative controls, cells were stained with antibodies as described without preincubation with human or murine IL-17E. Samples were then fixed with 0.5% paraformaldehyde prior to FACS analysis.

Experiment [2] addresses T1, murine interleukin 17E receptor present …. Nature of the experiment: FACS on 70Z/3 cells incubated with IL-17E (1 ug/10^6 cells), detected with biotin-conjugated goat anti-mouse IL17E and PE-Cy5.5 streptavidin. On the procedure: as §1, §2

B1: recombinant human interleukin 17E (ligand)
chain: YSHWPSCCPSKGQDTSEELLRWSTVPVPPLEPARPNRHPESCRASEDGPLNSRAISPWRYELDRDLNRLPQDLYHARCLCPHCVSLQTGSHMDPRGNSELLYHNQTVFYRRPCHGEKGTHKGYCLERRLYRVSLACVCVRPRVMG
notes: also called human IL-17E; hIL-17E
Take B1: in experiment [1], the binding result is given as “binds”.

B2: murine interleukin 17E (ligand)
chain: VSLRIQEGCSHLPSCCPSKEQEPPEEWLKWSSASVSPPEPLSHTHHAESCRASKDGPLNSRAISPWSYELDRDLNRVPQDLYHARCLCPHCVSLQTGSHMDPLGNSVPLYHNQTVFYRRPCHGEEGTHRRYCLERRLYRVSLACVCVRPRVMA
notes: also called murine IL-17E; mIL-17E
B2: the binding result in experiment [2] is “binds”.
